Experimental findings from patent publication US20090247540A1 (published 2009) are described below.

Data set [1] concerns the molecule itself. Description: crystal structure.
Data set [2] concerns the molecule itself. Description: cell surface cross-linking with DSP, immunoprecipitation, SDS-PAGE.

B1: EphA2 ligand-binding domain (receptor)
chain: EVVLLDFAAAGGELGWLTHPYGKGWDLMQNIMNDMPIYMYSVCNVMSGDQDNWLRTNWVYRGEAERIFIELKFTVRDCNSFPGGASSCKETFNLYYAESDLDYGTNFQKRLFTKIDTIAPDEITVSSDFEARHVKLNVEERSVGPLTRKGFYLAFQDIGACVALLSVRVYYKKC
notes: The crystallised domain; It forms dimers in the crystal; also called EphA2 LBD; EphA2-LBD
Consider B1, for which, in data set [1], the binding result was “binds”.

B2: EphB2 on PC-3 cells (receptor, human, UniProt P29323 19-1055, looked up)
chain: VEETLMDSTTATAELGWMVHPPSGWEEVSGYDENMNTIRTYQVCNVFESSQNNWLRTKFIRRRGAHRIHVEMKFSVRDCSSIPSVPGSCKETFNLYYYEADFDSATKTFPNWMENPWVKVDTIAADESFSQVDLGGRVMKINTEVRSFGPVSRSGFYLAFQDYGGCMSLIAVRVFYRKCPRIIQNGAIFQETLSGAESTSLVAARGSCIANAEEVDVPIKLYCNGDGEWLVPIGRCMCKAGFEAVENGTVCRGCPSGTFKANQGDEACTHCPINSRTTSEGATNCVCRNGYYRADLDPLDMPCTTIPSAPQAVISSVNETSLMLEWTPPRDSGGREDLVYNIICKSCGSGRGACTRCGDNVQYAPRQLGLTEPRIYISDLLAHTQYTFEIQAVNGVTDQSPFSPQFASVNITTNQAAPSAVSIMHQVSRTVDSITLSWSQPDQPNGVILDYELQYYEKELSEYNATAIKSPTNTVTVQGLKAGAIYVFQVRARTVAGYGRYSGKMYFQTMTEAEYQTSIQEKLPLIIGSSAAGLVFLIAVVVIAIVCNRRGFERADSEYTDKLQHYTSGHMTPGMKIYIDPFTYEDPNEAVREFAKEIDISCVKIEQVIGAGEFGEVCSGHLKLPGKREIFVAIKTLKSGYTEKQRRDFLSEASIMGQFDHPNVIHLEGVVTKSTPVMIITEFMENGSLDSFLRQNDGQFTVIQLVGMLRGIAAGMKYLADMNYVHRDLAARNILVNSNLVCKVSDFGLSRFLEDDTSDPTYTSALGGKIPIRWTAPEAIQYRKFTSASDVWSYGIVMWEVMSYGERPYWDMTNQDVINAIEQDYRLPPPMDCPSALHQLMLDCWQKDRNHRPKFGQIVNTLDKMIRNPNSLKAMAPLSSGINLPLLDRTIPDYTSFNTVDEWLEAIKMGQYKESFANAGFTSFDVVSQMMMEDILRVGVTLAGHQKKILNSIQVMRAQMNQIQSVEGQPLARRPRATGRTKRCQPRDVTKKTCNSNDGKKKGMGKKKTDPGRGREIQGIFFKEDSHKESNDCSCGG
notes: whole, on cells
B2: the binding result in data set [2] is given as “no binding”.
